Measured values published in patent publication US20240141028A1 (RHODE ISLAND HOSPITAL, published 2024).

Target: T1, PfGARP aa 443-459 (…) (Plasmodium falciparum)
T1 construct: Stood on the microarray as overlapping 15-mer peptides, not as one 17-mer
Assay: microarray of overlapping 15-mer peptides
Description: The peptides overlapped by a single amino acid and were printed in duplicate, framed by HA control peptides.
For epitope mapping, a custom 15-mer peptide microarray was designed and printed. […] The peptides overlapped by a single amino acid and were printed in duplicate, framed by HA control peptides. […] A duplicate array was probed with polyclonal, monospecific anti-PfGARP-A mouse antibodies (red).

B1: recombinant monoclonal anti-PfGARP (rec mAb7899) (antibody, V domains shown)
VH: EAQLQQSGTELVKPGASVKLSCTASGFYIKDTYIHWVRQRPVQGLEWIGRIDPANYDTKYDPKFQGKATITADTSSNTAYLQLINLTPEDTVVYYCTSFGGTKLRFAYWGQGTLVTVSA
VL: NIMMTQSPSSLAVSAGEEVTMSCKSSQSVLYSSNQRNYLAWFQQKSGQSPKLLIYWASTRESGVPDRFTGSGSGTDFTLTISNLQVEDLAVYYCLQHFSSWTFGGGTKLEIK
notes: also called recombinant mAb7899; recombinant mAb
- binding result: binds
